Patent US20020012942A1, “POLYPEPTIDES WITH A4 INTEGRIN SUBUNIT RELATED ACTIVITY” (Regents of the University of Minnesota, priority 1998, published 2002)
Read-outs that look alike come from different tables or passages of the source. Where no end group is shown, it is not given here.

Assays:
[1] = system: A375SM human melanoma cells; experiment: Trypan blue exclusion assay; type: cell-based
[2] = system: A375SM human melanoma cells; experiment: Cell adhesion assay: A375SM melanoma cell adhesion to substrata coated with CS1/OVA; type: cell-based; settings: A375SM cells on coated substrata
Procedure: Cell adhesion assays were performed as previously described in Iida et al., J. Cell Biol., 118, 431-444 (1992) with minor modifications. Ligands were diluted in PBS, and 50 μl aliquots were dispersed in triplicate into Immulon-1 polystyrene microtiter wells. The wells were incubated at 37° C. overnight, and nonspecific binding sites on plastic were then blocked by treating the wells with 200 ul of PBS/BSA.
Subconfluent A375SM human melanoma cells which had been radiolabeled overnight with ^3H-thymidine (3HTdR, specific activity 6.7 Ci/mmol; NEN Research Products, Boston, Mass.), were harvested by rinsing with 1 mM EDTA, washed two times with EMEM/BSA (EMEM containing 2 mg/ml BSA and 0.15 mM Hepes, pH 7.2) and adjusted to a concentration of […] in the same medium. Aliquots of 100 ul of the cell suspension were dispensed into the wells and the cells were incubated at 37° C. for 30 min. The assays were terminated by aspirating loosely bound and unbound cells from the wells, washing the wells three times, and solubilizing the bound cells in 0.5 N NaOH containing 1% SDS. Bound radioactivity, determined in a Beckman Model 3801 Liquid Scintillation Counter, was used to calculate the percentage of cells which remained adherent to each substratum. Unless otherwise indicated, the data represent the mean of triplicate determinations. […]

[3] = target: CD44 proteoglycan (human, UniProt P16070-12 21-361, limits assumed); experiment: SG1 peptide affinity column with 125I-labeled melanoma cell lysate; pooled eluate immunoprecipitated with anti-CD44
CD44 proteoglycan, sequence (P16070 other isoform, or with tags, fused parts or gaps limits assumed): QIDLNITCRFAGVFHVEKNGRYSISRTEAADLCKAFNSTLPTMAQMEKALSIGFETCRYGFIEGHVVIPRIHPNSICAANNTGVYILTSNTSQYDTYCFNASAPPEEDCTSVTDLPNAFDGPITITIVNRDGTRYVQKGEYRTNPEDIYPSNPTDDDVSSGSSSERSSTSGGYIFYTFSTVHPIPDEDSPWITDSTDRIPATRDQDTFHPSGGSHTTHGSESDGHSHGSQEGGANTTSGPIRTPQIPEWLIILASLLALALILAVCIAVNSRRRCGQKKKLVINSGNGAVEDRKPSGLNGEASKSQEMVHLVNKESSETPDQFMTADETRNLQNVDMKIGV
Procedure: Peptide-affinity chromatography was performed according to the methods described in Iida et al., J. Cell Biol., 118, 431-444 (1992). SG1 was immobilized on CH-Spharose and blocked using standard methods as described in the manufacturer's instruction. (available from Pharmacia). Human melanoma cells were surface radiolabeled with ¹²⁵I using lactoperoxidase and extracted as described in Iida et al., Cancer Res., 55, 2177-2185 (1995). Cells were extracted with 50 mM Tris-HCl (pH 7.3) containing 50 mM β-octylglucoside, 15 mM NaCl, 1 mM Ca²+, 1 mM Mg²+, 1 mM Mn²+, 1 mM PMSF, and 1 mM NEM (extraction buffer) and then centrifuged at 36500 rpm for 1 h at 4° C. The cell lysates were first precleared by incubating with a mock-column, where no peptide was immobilized, and then applied on the SG1 column. The column was extensively washed with the extraction buffer and then bound proteins were subsequently eluted by a linear gradient of sodium chloride (15 mM to 1 M). Each fraction was counted by r-counter and positive fractions were pooled and immunoprecipitated as described below.
In order to study the function of SG1 site in α4β1 integrin, affinity chromatography was performed using immobilized SG1 polypeptide. […] Open circles represent the radioactivity in each fraction and the solid line represents the concentration of NaCl in each fraction. […]

[4] = target: MPG/NG2 chondroitin sulfate proteoglycan (human) (UniProt Q6UVK1); experiment: SG1 peptide affinity column with purified MPG/NG2, linear NaCl gradient 15 mM to 1 M
MPG/NG2 chondroitin sulfate proteoglycan (human), sequence (Q6UVK1 30-2322): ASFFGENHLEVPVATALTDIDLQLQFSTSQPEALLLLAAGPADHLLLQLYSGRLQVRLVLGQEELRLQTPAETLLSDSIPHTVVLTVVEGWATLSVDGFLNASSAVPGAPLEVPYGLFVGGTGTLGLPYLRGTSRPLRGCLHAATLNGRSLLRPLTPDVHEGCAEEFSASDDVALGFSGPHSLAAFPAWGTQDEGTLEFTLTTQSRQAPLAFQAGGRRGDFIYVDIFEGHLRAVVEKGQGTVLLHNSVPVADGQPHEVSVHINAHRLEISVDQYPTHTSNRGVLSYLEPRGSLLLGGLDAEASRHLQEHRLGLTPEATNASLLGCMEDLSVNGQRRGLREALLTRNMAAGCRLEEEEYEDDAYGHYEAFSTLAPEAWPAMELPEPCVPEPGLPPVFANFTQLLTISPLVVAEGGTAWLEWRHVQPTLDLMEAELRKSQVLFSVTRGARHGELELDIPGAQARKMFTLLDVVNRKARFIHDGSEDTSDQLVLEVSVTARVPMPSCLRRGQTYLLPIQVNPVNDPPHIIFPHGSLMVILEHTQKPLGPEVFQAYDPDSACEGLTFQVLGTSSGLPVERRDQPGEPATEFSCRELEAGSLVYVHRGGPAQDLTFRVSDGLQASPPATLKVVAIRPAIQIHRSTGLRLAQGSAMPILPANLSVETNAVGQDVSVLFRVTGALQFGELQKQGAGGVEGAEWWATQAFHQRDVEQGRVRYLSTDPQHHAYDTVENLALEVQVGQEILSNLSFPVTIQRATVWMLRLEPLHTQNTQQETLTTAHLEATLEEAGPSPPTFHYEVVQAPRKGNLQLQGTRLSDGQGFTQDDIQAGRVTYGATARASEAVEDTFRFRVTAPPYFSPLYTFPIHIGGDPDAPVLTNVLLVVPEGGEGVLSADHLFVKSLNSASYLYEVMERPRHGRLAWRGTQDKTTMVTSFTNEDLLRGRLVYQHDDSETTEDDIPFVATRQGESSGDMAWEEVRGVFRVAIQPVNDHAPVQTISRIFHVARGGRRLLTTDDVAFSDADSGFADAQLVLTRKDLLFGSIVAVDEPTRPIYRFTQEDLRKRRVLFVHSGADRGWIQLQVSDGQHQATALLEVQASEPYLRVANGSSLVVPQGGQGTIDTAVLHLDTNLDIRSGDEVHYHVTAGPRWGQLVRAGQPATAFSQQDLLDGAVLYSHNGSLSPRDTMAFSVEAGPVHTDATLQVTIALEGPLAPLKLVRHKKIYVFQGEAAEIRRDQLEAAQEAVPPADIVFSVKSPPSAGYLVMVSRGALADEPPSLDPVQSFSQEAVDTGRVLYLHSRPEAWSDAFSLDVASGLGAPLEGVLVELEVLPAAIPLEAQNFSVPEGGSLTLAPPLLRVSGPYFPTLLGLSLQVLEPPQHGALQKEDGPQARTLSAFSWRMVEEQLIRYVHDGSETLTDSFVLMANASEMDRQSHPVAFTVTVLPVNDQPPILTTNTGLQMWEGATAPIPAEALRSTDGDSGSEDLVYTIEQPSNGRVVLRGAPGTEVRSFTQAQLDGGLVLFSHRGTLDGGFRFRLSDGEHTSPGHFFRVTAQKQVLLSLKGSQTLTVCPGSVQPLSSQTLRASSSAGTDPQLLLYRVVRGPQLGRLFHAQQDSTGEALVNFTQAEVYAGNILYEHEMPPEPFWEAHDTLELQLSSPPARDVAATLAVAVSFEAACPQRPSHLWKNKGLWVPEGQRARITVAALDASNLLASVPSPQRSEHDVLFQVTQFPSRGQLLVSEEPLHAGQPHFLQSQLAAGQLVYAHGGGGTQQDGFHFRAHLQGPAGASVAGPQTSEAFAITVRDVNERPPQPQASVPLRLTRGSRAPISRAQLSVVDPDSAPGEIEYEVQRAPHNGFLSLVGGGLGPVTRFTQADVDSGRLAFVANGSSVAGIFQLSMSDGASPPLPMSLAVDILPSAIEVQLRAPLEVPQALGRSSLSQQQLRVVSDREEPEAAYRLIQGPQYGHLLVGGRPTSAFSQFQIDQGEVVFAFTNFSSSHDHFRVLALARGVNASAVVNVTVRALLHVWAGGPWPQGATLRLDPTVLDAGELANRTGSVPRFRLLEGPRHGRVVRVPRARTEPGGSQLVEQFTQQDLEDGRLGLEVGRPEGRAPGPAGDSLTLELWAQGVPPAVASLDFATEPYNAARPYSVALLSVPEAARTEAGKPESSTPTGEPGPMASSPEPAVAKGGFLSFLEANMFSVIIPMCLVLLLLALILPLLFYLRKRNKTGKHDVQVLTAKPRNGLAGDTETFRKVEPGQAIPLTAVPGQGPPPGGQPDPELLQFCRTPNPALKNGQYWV

LQQKKEKDIMKKTI [SG1, LQQKKEKDIMKKTI]
Toxic activity on the cells (trypan blue exclusion) [1]: not be due to their toxic activity

DELPQLVTLPHPNLHGPEILDVPST [CS1, reference compound]
Toxic activity on the cells (trypan blue exclusion) ([1]; not shown): not be due to their toxic activity

B1: CS1/OVA: CS1 polypeptide chemically conjugated to ovalbumin using EDC (conjugate)
peptide: DELPQLVTLPHPNLHGPEILDVPST
chain: GSIGAASMEFCFDVFKELKVHHANENIFYCPIAIMSALAMVYLGAKDSTRTQINKVVRFDKLPGFGDSIEAQCGTSVNVHSSLRDILNQITKPNDVYSFSLASRLYAEERYPILPEYLQCVKELYRGGLEPINFQTAADQARELINSWVESQTNGIIRNVLQPSSVDSQTAMVLVNAIVFKGLWEKAFKDEDTQAMPFRVTEQESKPVQMMYQIGLFRVASMASEKMKILELPFASGTMSMLVLLPDEVSGLEQLESIINFEKLTEWTSSNVMEERKIKVYLPRMKMEEKYNLTSVLMAMGITDVFSSSANLSGISSAESLKISQAVHAAHAEINEAGREVVGSAEAGVDAASVSEEFRADHPFLFCIKHIATNAVLFFGRCVSP
Coating concentration that promoted half maximal cell adhesion [2]: 5 µg/mL

B2: SG1 polypeptide (peptide)
peptide: LQQKKEKDIMKKTI
modifications: Immobilized on CH-Sepharose (CH-affinity beads) in the affinity chromatography; the coupling to the support is not carried by the letters.
notes: Synthetic peptide; used as soluble peptide in the adhesion assays; also called L-SG1; polypeptide SG1
binding result [3]: no binding
NaCl concentration at elution [4]: 0.13 to 0.15 M
